{"source": "patent US6828121", "proteins": {"B1": {"name": "Prc protease (periplasmic C-terminal processing protein) (protein)", "chain": "VEDITRADQIPVLKEETQHATVSERVTSRFTRSHYRQFDLDQAFSAKIFDRYLNLLDYSHNVLLASDVEQFAKKKTELGDELRSGKLDVFYDLYNLAQKRRFERYQYALSVLEKPMDFTGNDTYNLDRSKAPWPKNEAELNALWDSKVKFDELSLKLTGKTDKEIRETLTRRYKFAIRRLAQTNSEDVFSLAMTAFAREIDPHTNYLSPRNTEQFNTEMSLSLEGIGAVLQMDDDYTVINSMVAGGPAAKSKAISVGDKIVGVGQTGKPMVDVIGWRLDDVVALIKGPKGSKVRLEILPAGKGTKTRTVTLTRERIRLEDRAVKMSVKTVGKEKVGVLDIPGFYVGLTDDVKVQLQKLEKQNVSSVIIDLRSNGGGALTEAVSLSGLFIPAGPIVQVRDNNGKVREDSDTDGQVFYKGPLVVLVDRFSASASEIFAAAMQDYGRALVVGEPTFGKGTVQQYRSLNRIYDQMLRPEWPALGSVQYTIQKFYRVNGGSTQRKGVTPDIIMPTGNEETETGEKFEDNALPWDSIDAATYVKSGDLTAFEPELLKEHNARIAKDPEFQNIMKDIARFNAMKDKRNIVSLNYAVREKENNEDDATRLARLNERFKREGKPELKKLDDLPKDYQEPDPYLDETVNIALDLAKLEKARPAEQPAPVK"}}, "target": "humanized anti-CD18 kappa light chain"}
{"protein": "B1", "values": [{"measurement": "kappa LC cleavage (LC clips on 1-D/2-D gels and peak 1 of the AME5/RP assay in prc-plus against prc-deletion strains)", "result": "Here it is shown that Prc is the only protease involved in kappa LC cleavage inside E. coli cells."}]}
